Consider one substance from PMC7039436.

One may read the stoichiometry N as the number of molecules, sites or subunits per partner or assembly.

The assay has as its target mono-ubiquitinated human FANCD2 (ubiquitin on Lysine 561) (human) (UniProt Q9BXW9). Kind of assay: biotin affinity purification with 3C protease elution; in vitro ubiquitination reaction with Avi-ubiquitin loaded on avidin agarose, 2 hrs 4 °C, washed with 10 CV 50 mM Tris-HCl pH 7.4, 150 mM NaCl, 10% glycerol, 1 mM DTT; eluted overnight with 100 nM GST-HRV-3C; Coomassie gel.

Substance “mono-ubiquitinated human FANCI (ubiquitin on Lysine 523) (from UniProt Q9NVI1 1-1328; P0CG47 1-76) (natural protein)” returned a stoichiometry N of 1.
